Common to all, as to assay type: binding
In one assay the test system is gRNA of HCoV-OC43. To be noted: for target (spectral count) / background (spectral count): type g_36_m, 36 hpi, Probe I; for target (spectral count): HCoV-OC43-infected HCT-8 cells; for background (spectral count): uninfected-probe control; for target (spectral count, OC43 Probe I RNP capture) / background (spectral count, no-probe control): type n_48_v: 48 hours post-infection; for target (spectral count, OC43 Probe I RNP capture): infected cells, unweighted spectral count; for background (spectral count, no-probe control): no-probe control on infected cells.

In the next assay the test system is HCoV-OC43 gRNA and sgRNA. To be noted: for target (unweighted spectral count, OC43 Probe II capture): tested against no-probe control, FDR<10%; for target (unweighted spectral count, OC43 Probe II) / background (unweighted spectral count, no-probe control): type n_48_v, 48 hpi; for target (unweighted spectral count, OC43 Probe II): OC43 Probe II capture on infected cells; for background (unweighted spectral count, no-probe control): no-probe control on infected cells.

In assay [1] the test system is SARS-CoV-2 gRNA and sgRNAs. The following applies: for target (unweighted spectral count in RNP capture): Probe II capture, LC-MS/MS LFQ; for background (unweighted spectral count in control): no-probe control pull-down, used as background for Probe II.

Read-outs that look alike come from different tables or passages of the source.

Here are results for seven molecules from patent US20230407373A1 (priority 2020, published 2023).

B1: LUC7L2: host protein, UniProt Q9Y383 (protein, UniProt Q9Y383 1-392, looked up)
Putative RNA-binding protein …: MSAQAQMRAMLDQLMGTSRDGDTTRQRIKFSDDRVCKSHLLNCCPHDVLSGTRMDLGECLKVHDLALRADYEIASKEQDFFFELDAMDHLQSFIADCDRRTEVAKKRLAETQEEISAEVAAKAERVHELNEEIGKLLAKVEQLGAEGNVEESQKVMDEVEKARAKKREAEEVYRNSMPASSFQQQKLRVCEVCSAYLGLHDNDRRLADHFGGKLHLGFIEIREKLEELKRVVAEKQEKRNQERLKRREEREREEREKLRRSRSHSKNPKRSRSREHRRHRSRSMSRERKRRTRSKSREKRHRHRSRSSSRSRSRSHQRSRHSSRDRSRERSKRRSSKERFRDQDLASCDRDRSSRDRSPRDRDRKDKKRSYESANGRSEDRRSSEEREAGEI
For the molecule B1, in the assay with gRNA of HCoV-OC43, the “target (spectral count)” value amounted to 9 and the “background (spectral count)” value was found to be 1. The “target (unweighted spectral count, OC43 Probe II capture)” value with HCoV-OC43 gRNA and sgRNA (24 hpi, type n_24_v) came to 4.

B2: PDIA6: host protein, UniProt Q15084 (protein, UniProt Q15084 20-440, looked up)
Protein disulfide-isomerase A6: LYSSSDDVIELTPSNFNREVIQSDSLWLVEFYAPWCGHCQRLTPEWKKAATALKDVVKVGAVDADKHHSLGGQYGVQGFPTIKIFGSNKNRPEDYQGGRTGEAIVDAALSALRQLVKDRLGGRSGGYSSGKQGRSDSSSKKDVIELTDDSFDKNVLDSEDVWMVEFYAPWCGHCKNLEPEWAAAASEVKEQTKGKVKLAAVDATVNQVLASRYGIRGFPTIKIFQKGESPVDYDGGRTRSDIVSRALDLFSDNAPPPELLEIINEDIAKRTCEEHQLCVVAVLPHILDTGAAGRNSYLEVLLKLADKYKKKMWGWLWTEAGAQSELETALGIGGFGYPAMAAINARKMKFALLKGSFSEQGINEFLRELSFGRGSTAPVGGGAFPTIVEREPWDGRDGELPVEDDIDLSDVELDDLGKDEL
For the molecule B2, the “target (spectral count)” value turned out to be 12 with gRNA of HCoV-OC43; 7 with HCoV-OC43 gRNA and sgRNA (type s_36_m, HCoV-OC43-infected HCT-8 cells, 36 hpi, Probe II). Also, the “background (spectral count)” value is 1 in the assay on gRNA of HCoV-OC43; 1 in the assay on HCoV-OC43 gRNA and sgRNA (type s_36_m, uninfected-probe control, 36 hpi, Probe II). The “target (unweighted spectral count, OC43 Probe II capture)” value in the assay with HCoV-OC43 gRNA and sgRNA (24 hpi, type n_24_v) was found to be 4; in the assay with HCoV-OC43 gRNA and sgRNA (36 hpi, type n_36_v) it was 7.

B3: SF3B2 (protein, UniProt Q13435 1-895, looked up)
Splicing factor 3B subunit 2: MATEHPEPPKAELQLPPPPPPGHYGAWAAQELQAKLAEIGAPIQGNREELVERLQSYTRQTGIVLNRPVLRGEDGDKAAPPPMSAQLPGIPMPPPPLGLPPLQPPPPPPPPPPGLGLGFPMAHPPNLGPPPPLRVGEPVALSEEERLKLAQQQAALLMQQEERAKQQGDHSLKEHELLEQQKRAAVLLEQERQQEIAKMGTPVPRPPQDMGQIGVRTPLGPRVAAPVGPVGPTPTVLPMGAPVPRPRGPPPPPGDENREMDDPSVGPKIPQALEKILQLKESRQEEMNSQQEEEEMETDARSSLGQSASETEEDTVSVSKKEKNRKRRNRKKKKKPQRVRGVSSESSGDREKDSTRSRGSDSPAADVEIEYVTEEPEIYEPNFIFFKRIFEAFKLTDDVKKEKEKEPEKLDKLENSAAPKKKGFEEEHKDSDDDSSDDEQEKKPEAPKLSKKKLRRMNRFTVAELKQLVARPDVVEMHDVTAQDPKLLVHLKATRNSVPVPRHWCFKRKYLQGKRGIEKPPFELPDFIKRTGIQEMREALQEKEEQKTMKSKMREKVRPKMGKIDIDYQKLHDAFFKWQTKPKLTIHGDLYYEGKEFETRLKEKKPGDLSDELRISLGMPVGPNAHKVPPPWLIAMQRYGPPPSYPNLKIPGLNSPIPESCSFGYHAGGWGKPPVDETGKPLYGDVFGTNAAEFQTKTEEEEIDRTPWGELEPSDEESSEEEEEEESDEDKPDETGFITPADSGLITPGGFSSVPAGMETPELIELRKKKIEEAMDGSETPQLFTVLPEKRTATVGGAMMGSTHIYDMSTVMSRKGPAPELQGVEVALAPEELELDPMAMTQKYEEHVREQQAQVEKEDFSDMVAEHAAKQKQKKRKAQPQDSRGGSKKYKEFKF
On to B3, for which, in the assay on gRNA of HCoV-OC43, the “target (spectral count, OC43 Probe I RNP capture)” value was determined as 5 and the “background (spectral count, no-probe control)” value is recorded as 1. For the same molecule, in the assay on HCoV-OC43 gRNA and sgRNA, the “target (unweighted spectral count, OC43 Probe II)” value turned out to be 5 and the “background (unweighted spectral count, no-probe control)” value came to 1.

B4: HRNPR (protein, UniProt O43390 2-633, looked up)
Heterogeneous nuclear …: ANQVNGNAVQLKEEEEPMDTSSVTHTEHYKTLIEAGLPQKVAERLDEIFQTGLVAYVDLDERAIDALREFNEEGALSVLQQFKESDLSHVQNKSAFLCGVMKTYRQREKQGSKVQESTKGPDEAKIKALLERTGYTLDVTTGQRKYGGPPPDSVYSGVQPGIGTEVFVGKIPRDLYEDELVPLFEKAGPIWDLRLMMDPLSGQNRGYAFITFCGKEAAQEAVKLCDSYEIRPGKHLGVCISVANNRLFVGSIPKNKTKENILEEFSKVTEGLVDVILYHQPDDKKKNRGFCFLEYEDHKSAAQARRRLMSGKVKVWGNVVTVEWADPVEEPDPEVMAKVKVLFVRNLATTVTEEILEKSFSEFGKLERVKKLKDYAFVHFEDRGAAVKAMDEMNGKEIEGEEIEIVLAKPPDKKRKERQAARQASRSTAYEDYYYHPPPRMPPPIRGRGRGGGRGGYGYPPDYYGYEDYYDDYYGYDYHDYRGGYEDPYYGYDDGYAVRGRGGGRGGRGAPPPPRGRGAPPPRGRAGYSQRGAPLGPPRGSRGGRGGPAQQQRGRGSRGSRGNRGGNVGGKRKADGYNQPDSKRRQTNNQQNWGSQPIAQQPLQQGGDYSGNYGYNNDNQEFYQDTYGQQWK
Turning to B4, in assay [1], the “target (unweighted spectral count in RNP capture)” value is reported as 32 and the “background (unweighted spectral count in control)” value turned out to be 1.

B5: RAVER1 (protein, UniProt Q8IY67 2-606, looked up)
Ribonucleoprotein PTB-binding …: AADVSVTHRPPLSPKSGAEVEAGDAAERRAPEEELPPLDPEEIRKRLEHTERQFRNRRKILIRGLPGDVTNQEVHDLLSDYELKYCFVDKYKGTAFVTLLNGEQAEAAINAFHQSRLRERELSVQLQPTDALLCVANLPPSLTQQQFEELVRPFGSLERCFLVYSERTGQSKGYGFAEYMKKDSAARAKSDLLGKPLGPRTLYVHWTDAGQLTPALLHSRCLCVDRLPPGFNDVDALCRALSAVHSPTFCQLACGQDGQLKGFAVLEYETAEMAEEAQQQADGLSLGGSHLRVSFCAPGPPGRSMLAALIAAQATALNRGKGLLPEPNILQLLNNLGPSASLQLLLNPLLHGSAGGKQGLLGAPPAMPLLNGPALSTALLQLALQTQGQKKPGILGDSPLGALQPGAQPANPLLGELPAGGGLPPELPPRRGKPPPLLPSVLGPAGGDREALGLGPPAAQLTPPPAPVGLRGSGLRGPLSHFYSGSPTSYFTSGLQAGLKQSHLSKAIGSSPLGSGEGLLGLSPGPNGHSHLLKVRAGGGDMQGWEAPAPQRPLTRPALPSVSRPHWAARNAALPTCCPRPSPAQKAAMWASTPRASAATTRTPT
In the case of B5, in the assay with gRNA of HCoV-OC43, the “target (spectral count, OC43 Probe I RNP capture)” value is listed as 5 and the “background (spectral count, no-probe control)” value came to 1. In the assay with HCoV-OC43 gRNA and sgRNA, the “target (unweighted spectral count, OC43 Probe II)” value is on record as 5 and the “background (unweighted spectral count, no-probe control)” value was 1.

B6: HRNPA2B1 (protein, UniProt P22626 1-353, looked up)
Heterogeneous nuclear …: MEKTLETVPLERKKREKEQFRKLFIGGLSFETTEESLRNYYEQWGKLTDCVVMRDPASKRSRGFGFVTFSSMAEVDAAMAARPHSIDGRVVEPKRAVAREESGKPGAHVTVKKLFVGGIKEDTEEHHLRDYFEEYGKIDTIEIITDRQSGKKRGFGFVTFDDHDPVDKIVLQKYHTINGHNAEVRKALSRQEMQEVQSSRSGRGGNFGFGDSRGGGGNFGPGPGSNFRGGSDGYGSGRGFGDGYNGYGGGPGGGNFGGSPGYGGGRGGYGGGGPGYGNQGGGYGGGYDNYGGGNYGSGNYNDFGNYNQQPSNYGPMKSGNFGGSRNMGGPYGGGNYGPGGSGGSGGYGGRSRY
Turning to B6, in assay [1], the “target (unweighted spectral count in RNP capture)” value is on record as 88 and the “background (unweighted spectral count in control)” value was found to be 1.

B7: DOX3X (protein, UniProt O00571 2-662, looked up)
ATP-dependent RNA helicase …: SHVAVENALGLDQQFAGLDLNSSDNQSGGSTASKGRYIPPHLRNREATKGFYDKDSSGWSSSKDKDAYSSFGSRSDSRGKSSFFSDRGSGSRGRFDDRGRSDYDGIGSRGDRSGFGKFERGGNSRWCDKSDEDDWSKPLPPSERLEQELFSGGNTGINFEKYDDIPVEATGNNCPPHIESFSDVEMGEIIMGNIELTRYTRPTPVQKHAIPIIKEKRDLMACAQTGSGKTAAFLLPILSQIYSDGPGEALRAMKENGRYGRRKQYPISLVLAPTRELAVQIYEEARKFSYRSRVRPCVVYGGADIGQQIRDLERGCHLLVATPGRLVDMMERGKIGLDFCKYLVLDEADRMLDMGFEPQIRRIVEQDTMPPKGVRHTMMFSATFPKEIQMLARDFLDEYIFLAVGRVGSTSENITQKVVWVEESDKRSFLLDLLNATGKDSLTLVFVETKKGADSLEDFLYHEGYACTSIHGDRSQRDREEALHQFRSGKSPILVATAVAARGLDISNVKHVINFDLPSDIEEYVHRIGRTGRVGNLGLATSFFNERNINITKDLLDLLVEAKQEVPSWLENMAYEHHYKGSSRGRSKSSRFSGGFGARDYRQSSGASSSSFSSSRASSSRSGGGGHGSSRGFGGGGYGGFYNSDGYGGNYNSQGVDWWGN
Consider B7, for which, in assay [1], the “target (unweighted spectral count in RNP capture)” value is on record as 49 and the “background (unweighted spectral count in control)” value turned out to be 1.
